Measured values from publication PMC4947163, “RNA polymerase I–Rrn3 complex at 4.8 Å resolution” (Nature Communications, 2016).

T1: Pol I subunit A49 (S. cerevisiae, UniProt Q01080 1-415)
T1 construct: Pol I subunit A49, S. cerevisiae; Stood in the assay as a subunit of the whole Pol I; source: endogenous, purified from yeast as part of Pol I
T1 sequence (looked up): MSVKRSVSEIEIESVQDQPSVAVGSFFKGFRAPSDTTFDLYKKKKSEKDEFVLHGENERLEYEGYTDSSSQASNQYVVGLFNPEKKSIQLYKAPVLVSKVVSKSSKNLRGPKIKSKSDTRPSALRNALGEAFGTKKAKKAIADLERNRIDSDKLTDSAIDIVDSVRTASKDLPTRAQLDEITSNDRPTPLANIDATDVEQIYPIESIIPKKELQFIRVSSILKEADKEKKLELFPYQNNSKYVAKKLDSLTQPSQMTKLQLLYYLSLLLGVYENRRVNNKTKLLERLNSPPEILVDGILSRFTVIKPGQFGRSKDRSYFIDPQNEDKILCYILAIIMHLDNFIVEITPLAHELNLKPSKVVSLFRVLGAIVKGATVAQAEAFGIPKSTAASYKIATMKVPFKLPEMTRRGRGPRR

T2: Pol I subunit A135 (S. cerevisiae, UniProt P22138 1-1203)
T2 construct: Pol I subunit A135, S. cerevisiae; Stood in the assay as a subunit of the whole Pol I; source: endogenous, purified from yeast as part of Pol I
T2 sequence (looked up): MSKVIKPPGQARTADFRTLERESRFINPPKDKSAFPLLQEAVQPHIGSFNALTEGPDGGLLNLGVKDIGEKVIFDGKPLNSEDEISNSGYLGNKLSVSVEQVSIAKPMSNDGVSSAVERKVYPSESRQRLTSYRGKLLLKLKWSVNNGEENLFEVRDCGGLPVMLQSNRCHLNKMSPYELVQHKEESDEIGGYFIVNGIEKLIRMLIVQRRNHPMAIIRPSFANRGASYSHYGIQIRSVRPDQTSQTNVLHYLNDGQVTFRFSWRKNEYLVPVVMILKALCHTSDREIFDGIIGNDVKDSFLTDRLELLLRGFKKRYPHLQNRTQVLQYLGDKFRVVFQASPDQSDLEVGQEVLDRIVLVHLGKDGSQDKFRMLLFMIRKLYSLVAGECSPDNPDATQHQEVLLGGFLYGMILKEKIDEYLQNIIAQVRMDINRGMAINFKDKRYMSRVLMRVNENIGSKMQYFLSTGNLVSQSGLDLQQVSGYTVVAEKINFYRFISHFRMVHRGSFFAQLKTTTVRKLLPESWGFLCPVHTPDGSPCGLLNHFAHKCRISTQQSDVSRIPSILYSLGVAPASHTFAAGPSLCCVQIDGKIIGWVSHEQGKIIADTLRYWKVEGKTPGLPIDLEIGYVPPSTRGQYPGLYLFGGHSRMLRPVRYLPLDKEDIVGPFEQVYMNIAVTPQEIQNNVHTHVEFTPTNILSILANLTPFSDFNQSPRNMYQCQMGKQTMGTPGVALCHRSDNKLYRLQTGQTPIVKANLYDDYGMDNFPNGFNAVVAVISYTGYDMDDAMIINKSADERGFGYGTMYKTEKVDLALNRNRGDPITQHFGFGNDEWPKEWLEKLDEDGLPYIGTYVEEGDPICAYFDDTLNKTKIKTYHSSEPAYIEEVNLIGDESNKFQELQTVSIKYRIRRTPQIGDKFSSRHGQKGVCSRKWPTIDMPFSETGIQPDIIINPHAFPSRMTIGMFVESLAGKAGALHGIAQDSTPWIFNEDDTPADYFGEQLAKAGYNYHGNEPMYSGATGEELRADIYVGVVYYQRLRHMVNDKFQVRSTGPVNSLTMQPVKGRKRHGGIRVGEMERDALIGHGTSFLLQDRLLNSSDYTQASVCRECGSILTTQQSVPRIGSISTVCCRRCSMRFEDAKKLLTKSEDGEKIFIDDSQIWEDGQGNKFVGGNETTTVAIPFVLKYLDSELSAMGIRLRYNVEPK

B1: Pol I subunit A34.5 (natural protein, S. cerevisiae, UniProt P47006 1-233, looked up)
chain: MSKLSKDYVSDSDSDDEVISNEFSIPDGFKKCKHLKNFPLNGDNKKKAKQQQVWLIKFPSNVDISKLKSLPVDFESSTTMTIDKHDYKIMDDTDIESSLTQDNLSNMTLLVPSESKESLKIASTAKDNAPLQFDKVFSVSETAKIPAIDYSKVRVPRKDVPKVEGLKLEHFATGYDAEDFHVAEEVKENKKEPKKRSHHDDEEESSEKKKKKKEKREKREKKDKKDKKKKHRD
notes: Pol I subunit A34.5, S. cerevisiae; Stood in the assay as a subunit of the whole Pol I; source: endogenous, purified from yeast as part of Pol I
B2: Rrn3 (natural protein, S. cerevisiae)
chain: MMAFENTSKRPPQDFVAPIDQKKRKVQFSDSTGLVTLQPEEIKDEVFSAAMYSRFVKSALDDLDKNDSTQIGIIANQVALPSKNPERINDKNLNILLDILSSNINRIESSRGTFLIQSIINFEKWWELPPHTLSKYIYFIKILCSSIPKWWQDVSMILVSCFILPIKQTVCHHDMLKYFLRMIPSSMGFIDTYLAKFFPNKNDTRRKLVNYTSNLLKLRGYCSELGFQIWSLLIEKIISIDVELQNELDELDDDVDDDDLEEVDLEDDDDLDDDSGDDDDENCGNSNEELRSGAADGSQSDSEDMDIIEGMDGTEEYNVELTQGIKELSTKLDSILTLVSTHVEEQVTPESLESGEGVGVFNTLTTLFKTHVLPTYYTRSIQYIMFHVSQQQLELMDSFLVTLIDISFAVNEAAEKKIKSLQYLGSYIARAKKLSRTQIIFVASYLTSWLNRYVIEREEEVDQRGGMERFKHFYAAFQALCYIFCFRHNIFRDTDGNWECELDKFFQRMVISKFNPLKFCNENVMLMFARIAQQESVAYCFSIIENNNNERLRGIIGKADSDKKENSAQANTTSSSWSLATRQQFIDLQSYFPYDPLFLKNYKILMKEYYIEWSEASGEYESDGSDD
notes: Rrn3, Pol I-specific initiation factor, S. cerevisiae; also called Pol I-specific initiation factor Rrn3
B3: Pol I subunit AC19 (natural protein, S. cerevisiae, UniProt P28000 1-142, looked up)
chain: MTEDIEQKKTATEVTPQEPKHIQEEEEQDVDMTGDEEQEEEPDREKIKLLTQATSEDGTSASFQIVEEDHTLGNALRYVIMKNPDVEFCGYSIPHPSENLLNIRIQTYGETTAVDALQKGLKDLMDLCDVVESKFTEKIKSM
notes: Pol I subunit AC19, S. cerevisiae; Stood in the assay as a subunit of the whole Pol I; source: endogenous, purified from yeast as part of Pol I
B4: Pol I subunit AC40 (natural protein, S. cerevisiae, UniProt P07703 1-335, looked up)
chain: MSNIVGIEYNRVTNTTSTDFPGFSKDAENEWNVEKFKKDFEVNISSLDAREANFDLINIDTSIANAFRRIMISEVPSVAAEYVYFFNNTSVIQDEVLAHRIGLVPLKVDPDMLTWVDSNLPDDEKFTDENTIVLSLNVKCTRNPDAPKGSTDPKELYNNAHVYARDLKFEPQGRQSTTFADCPVVPADPDILLAKLRPGQEISLKAHCILGIGGDHAKFSPVSTASYRLLPQINILQPIKGESARRFQKCFPPGVIGIDEGSDEAYVKDARKDTVSREVLRYEEFADKVKLGRVRNHFIFNVESAGAMTPEEIFFKSVRILKNKAEYLKNCPITQ
notes: Pol I subunit AC40, S. cerevisiae; Stood in the assay as a subunit of the whole Pol I; source: endogenous, purified from yeast as part of Pol I

Key:
Assay in all cases: cryo-EM structure; Pol I incubated with fivefold excess of Rrn3 and CF overnight at 4 °C, SEC in buffer A (150 mM sodium chloride, 5 mM HEPES pH 7.8, 1 mM magnesium chloride, 10 μM zinc chloride, 5 mM dithiothreitol), crosslinked with 1 mM BS3; single-particle reconstruction at 4.8 Å from 63,445 particles; crystal structures fitted as rigid bodies
Details in all cases: both partners purified
Pol I subunit A49 = molecular target: T1, Pol I subunit A49
Pol I subunit A135 = molecular target: T2, Pol I subunit A135
Pol I subunit A190 = molecular target: T3, Pol I subunit A190 (S. cerevisiae, UniProt P10964 1-1664)
T3 construct: Pol I subunit A190, S. cerevisiae; Stood in the assay as a subunit of the whole Pol I; source: endogenous, purified from yeast as part of Pol I

Pol I subunit AC40 = molecular target: B4
Rrn3 = molecular target: B2

T3 sequence (P10964 whole entry): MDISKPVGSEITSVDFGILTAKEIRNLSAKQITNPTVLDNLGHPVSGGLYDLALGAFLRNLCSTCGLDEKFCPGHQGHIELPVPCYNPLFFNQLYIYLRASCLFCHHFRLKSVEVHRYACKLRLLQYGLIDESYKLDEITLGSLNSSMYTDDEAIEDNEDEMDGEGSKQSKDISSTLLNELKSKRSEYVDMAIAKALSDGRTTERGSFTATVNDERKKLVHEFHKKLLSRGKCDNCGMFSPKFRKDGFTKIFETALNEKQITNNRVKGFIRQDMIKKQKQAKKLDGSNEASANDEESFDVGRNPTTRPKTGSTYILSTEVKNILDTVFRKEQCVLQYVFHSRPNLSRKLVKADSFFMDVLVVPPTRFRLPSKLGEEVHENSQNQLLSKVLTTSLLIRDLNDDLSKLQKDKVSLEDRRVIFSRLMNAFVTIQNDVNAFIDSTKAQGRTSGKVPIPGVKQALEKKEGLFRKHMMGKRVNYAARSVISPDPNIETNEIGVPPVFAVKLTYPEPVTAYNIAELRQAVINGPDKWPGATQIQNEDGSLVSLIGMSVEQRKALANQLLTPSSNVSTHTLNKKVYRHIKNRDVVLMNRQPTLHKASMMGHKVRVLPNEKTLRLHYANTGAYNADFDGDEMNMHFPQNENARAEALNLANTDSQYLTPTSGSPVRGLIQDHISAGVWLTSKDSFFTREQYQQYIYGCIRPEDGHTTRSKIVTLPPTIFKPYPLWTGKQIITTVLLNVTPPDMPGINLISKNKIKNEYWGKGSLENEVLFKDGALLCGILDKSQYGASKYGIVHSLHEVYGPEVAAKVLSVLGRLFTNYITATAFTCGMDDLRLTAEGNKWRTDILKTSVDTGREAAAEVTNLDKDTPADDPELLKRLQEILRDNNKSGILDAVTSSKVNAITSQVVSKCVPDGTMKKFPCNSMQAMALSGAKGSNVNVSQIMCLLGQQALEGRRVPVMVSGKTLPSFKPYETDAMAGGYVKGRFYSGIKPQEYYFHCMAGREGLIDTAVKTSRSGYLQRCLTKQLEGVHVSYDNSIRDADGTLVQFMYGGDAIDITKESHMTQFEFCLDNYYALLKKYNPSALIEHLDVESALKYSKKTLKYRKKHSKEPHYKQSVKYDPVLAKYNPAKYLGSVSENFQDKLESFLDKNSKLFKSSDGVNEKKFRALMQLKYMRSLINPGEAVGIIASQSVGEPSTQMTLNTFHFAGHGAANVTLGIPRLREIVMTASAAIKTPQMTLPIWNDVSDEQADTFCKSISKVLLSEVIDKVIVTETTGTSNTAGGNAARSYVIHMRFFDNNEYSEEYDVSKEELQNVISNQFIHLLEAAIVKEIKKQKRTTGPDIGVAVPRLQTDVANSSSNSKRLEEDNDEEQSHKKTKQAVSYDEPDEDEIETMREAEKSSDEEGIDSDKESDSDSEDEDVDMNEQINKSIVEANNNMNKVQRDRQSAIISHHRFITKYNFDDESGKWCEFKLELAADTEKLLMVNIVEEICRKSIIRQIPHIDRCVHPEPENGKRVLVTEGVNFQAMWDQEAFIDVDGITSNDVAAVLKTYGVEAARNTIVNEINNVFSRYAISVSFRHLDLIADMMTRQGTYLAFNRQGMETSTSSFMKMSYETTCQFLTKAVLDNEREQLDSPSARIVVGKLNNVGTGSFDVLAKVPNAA

Binder: B1
- binding result (Pol I subunit A49): binds

Binder: B2
- binding result (Pol I subunit A135): binds
- binding result (Pol I subunit A190): binds

Binder: B3
- binding result (Pol I subunit AC40): binds
- binding result (Rrn3): binds

Binder: B4
- binding result (Rrn3): binds
